Measurements from patent US20140212425A1.
Each block holds one molecule with its values, some of them ahead of it.

Experiments:
[1] = target: CD20 on cells (Daudi cells, B cells in PBMCs) (human) (UniProt P11836); test: cell-based or functional assay
[2] = target: Soluble single-chain FcRn (extracellular domain of the human FcRn heavy chain fused with β2-microglobulin via a flexible peptide linker) (human) (UniProt P55899); test: SPR, scFcRn immobilised, pH 6.0
[3] = target: Soluble single-chain FcRn (extracellular domain of the human FcRn heavy chain fused with β2-microglobulin via a flexible peptide linker) (human) (UniProt P55899); test: SPR (BIACORE X), scFcRn on CM5 chip, pH 6.0, two-state reaction model; mean of 3 runs, S.D. 21.5
[4] = target: Soluble single-chain FcRn (extracellular domain of the human FcRn heavy chain fused with β2-microglobulin via a flexible peptide linker) (human) (UniProt P55899); test: SPR (BIACORE X), scFcRn on CM5 chip, pH 6.0, two-state reaction model; mean of 3 runs, S.D. 0.0024
[5] = target: Soluble single-chain FcRn (extracellular domain of the human FcRn heavy chain fused with β2-microglobulin via a flexible peptide linker) (human) (UniProt P55899); test: SPR (BIACORE X), scFcRn on CM5 chip, pH 6.0, two-state reaction model; mean of 3 runs, S.D. 2.72 × 10^4
[6] = target: Soluble single-chain FcRn (extracellular domain of the human FcRn heavy chain fused with β2-microglobulin via a flexible peptide linker) (human) (UniProt P55899); test: SPR (BIACORE X), scFcRn amine-coupled to CM5 chip, antibody 25-400 nM as analyte, pH 6.0, two-state reaction model; Run 1
[7] = target: Soluble single-chain FcRn (extracellular domain of the human FcRn heavy chain fused with β2-microglobulin via a flexible peptide linker) (human) (UniProt P55899); test: SPR (BIACORE X), scFcRn amine-coupled to CM5 chip, antibody 25-400 nM as analyte, pH 6.0, two-state reaction model; Run 2
[8] = target: Soluble single-chain FcRn (extracellular domain of the human FcRn heavy chain fused with β2-microglobulin via a flexible peptide linker) (human) (UniProt P55899); test: SPR (BIACORE X), scFcRn amine-coupled to CM5 chip, antibody 25-400 nM as analyte, pH 6.0, two-state reaction model; Run 3
[9] = target: Soluble single-chain FcRn (extracellular domain of the human FcRn heavy chain fused with β2-microglobulin via a flexible peptide linker) (human) (UniProt P55899); test: SPR (BIACORE X), scFcRn on CM5 chip, pH 6.0, two-state reaction model; mean of 3 runs, S.D. 1.5
[10] = target: CD22 on cells (B cells in PBMCs, Daudi, D1-1 cells) (human) (UniProt P20273); test: cell-based or functional assay

Sequence of CD20 on cells (Daudi cells, B cells in PBMCs) (human) (P11836 whole entry, the tested form may be a part): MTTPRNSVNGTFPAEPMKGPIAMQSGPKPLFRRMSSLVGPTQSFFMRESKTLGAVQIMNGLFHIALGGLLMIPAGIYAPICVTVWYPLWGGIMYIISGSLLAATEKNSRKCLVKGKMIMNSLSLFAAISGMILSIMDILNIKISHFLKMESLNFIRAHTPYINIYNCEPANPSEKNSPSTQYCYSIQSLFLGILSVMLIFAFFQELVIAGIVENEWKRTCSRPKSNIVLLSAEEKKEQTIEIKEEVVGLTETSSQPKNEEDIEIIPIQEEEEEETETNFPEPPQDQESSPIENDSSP

Molecule: 20*-2b (Ck-AD2-IgG-veltuzumab conjugated with IFNα2b-DDD2) (from UniProt P01563 24-188)
cytotoxicity in Daudi cells, EC50 (MTS assay, 3 days) [1]: 200 nM

Molecule: 20-2b (CH3-AD2-IgG-veltuzumab conjugated with IFNα2b-DDD2) (from UniProt P01563 24-188)
cytotoxicity in Daudi cells, EC50 (MTS assay, 3 days) [1]: 200 nM

Molecule: 22-(20)-(20), Fc-based anti-CD22/CD20 bispecific hexavalent antibody (CH3-AD2-IgG-epratuzumab conjugated with CH1-DDD2-Fab-veltuzumab) (bispecific antibody)
Kd [7]: 267 nM
Kd [8]: 352 nM

More lines, now with the values ahead:

Kd [2]: 155 nM
fold stronger binding affinity than 22-(20)-(20) [2]: 2 fold
Kd [3]: 166 nM
koff [4]: 0.0413 s⁻¹
kon [5]: 251000 M⁻¹ s⁻¹
Kd [6]: 141 nM
koff [6]: 0.0395 s⁻¹
kon [6]: 280000 M⁻¹ s⁻¹
Kd [7]: 179 nM
koff [7]: 0.0404 s⁻¹
kon [7]: 226000 M⁻¹ s⁻¹
Kd [8]: 178 nM
koff [8]: 0.0441 s⁻¹
kon [8]: 248000 M⁻¹ s⁻¹
Molecule: 22*-(20)-(20), anti-CD22/CD20 bispecific hexavalent antibody (Ck-AD2-IgG-epratuzumab conjugated with CH1-DDD2-Fab-veltuzumab) (bispecific antibody)

Kd [9]: 16.3 nM
Kd [6]: 15 nM
Kd [7]: 17.9 nM
Kd [8]: 15.8 nM
Molecule: Epratuzumab (humanized anti-CD22 IgG1κ) (antibody)

CD22 level on the surface of B cells in PBMCs (% of isotype control MFI), 10 µg/mL [10]: 45 % control
B1: F(ab′)2 fragment of epratuzumab (protein, INN chains, looked up)
VH: QVQLVQSGAEVKKPGSSVKVSCKASGYTFTSYWLHWVRQAPGQGLEWIGYINPRNDYTEYNQNFKDKATITADESTNTAYMELSSLRSEDTAFYFCARRDITTFYWGQGTTVTVSS
VL: DIQLTQSPSSLSASVGDRVTMSCKSSQSVLYSANHKNYLAWYQQKPGKAPKLLIYWASTRESGVPSRFSGSGSGTDFTFTISSLQPEDIATYYCHQYLSSWTFGGGTKLEIK
modifications: F(ab')2
